Laboratory results: patent US6025158A, “Nucleic acids encoding humanized anti-IL-8 monoclonal antibodies” (Genentech, Inc., dated 2000)
Substitutions are numbered along the chain they refer to.

Key:
[1] = isoelectric focusing (IEF); type: physicochemical; conditions: IEF pH 3-9
Procedure: The isoelectric focusing (IEF) pattern of each mAb was determined by applying purified antibodies on an IEF polyacrylamide gel (pH 3-9, Pharmacia) using the Fast gel system (Pharmacia, Piscataway, N.J.). The IEF gel was pretreated with pharmalyte containing 1% Triton X100 (Sigma, St. Louis, Mo.) for 10 min before loading the samples. The IEF pattern was visualized by silver staining according to the instructions from the manufacturer. All of the monoclonal antibodies had different IEF patterns, confirming that they originated from different clones.

[2] = biological target: T1, IL-8 binding to human neutrophils (Homo sapiens, UniProt P10145); assay: receptor binding assay: 125I-IL-8 bound to human neutrophils in presence of mAbs; conditions: 1:25 molar ratio of IL-8 to mAb
T1 construct: is intended to mean (ser-IL-8)72 unless otherwise specified; ubiquitin (production fusion); made in house
Procedure: Neutrophils were prepared by using Mono-Poly Resolving Medium (M-PRM) (Flow Lab. Inc., McLean, Va.). Briefly fresh, heparinized human blood was loaded onto M-PRM at a ratio of blood to medium, 3.5:3.0, and centrifuged at 300×g for 30 min at room temperature. Neutrophils enriched at the middle layer were collected and washed once in PBS. […] The receptor binding assay was done as follows. […] The mixture was then incubated with 100 μl of neutrophils (10^7 cells/ml) for 15 min at 37° C. […] The supernatant was removed by aspiration and the radioactivity associated with the pellet was counted in a gamma counter.

[3] = tested on: human IL-8 mediated elastase release from human neutrophils; assay: IL-8 mediated release of elastase by neutrophils (mAb); type: cell-based; conditions: 1:1 ratio of IL-8 to mAb
Procedure: One of the antibodies, mAb 5.12.14, was further studied to determine whether it could block the IL-8 mediated release of elastase by neutrophils. Briefly, human neutrophils were resuspended in Hanks balanced salt solution (Gibco, Grand Island, N.Y.) containing 1.0% BSA, Fraction V (Sigma, St. Louis, Mo.), 2 mg/ml alpha-D-glucose (Sigma), 4.2 mM sodium bicarbonate (Sigma) and 0.01 M HEPES, pH 7.1 (JRH Bioscience, Lenexa, Kans.). A stock of cytochalasin B (Sigma) was prepared (5 mg/ml in dimethylsulfoxide (Sigma) and stored at 2-8° C. Cytochalasin B was added to the neutrophil preparation to produce a final concentration of 5 μg/ml, and incubated for 15 min at 37° C. Human IL-8 was incubated with mAb 5.12.14 (20 μl), or a negative control antibody, in 1 ml polypropylene tubes (DBM Scientific, San Fernando, Calif.) for 30 min at 37° C. The final assay concentrations of IL-8 were 50 and 500 nM. The monoclonal antibodies were diluted to produce the following ratios (IL-8:Mab): 1:50, 1:10, 1:2, 1:1, and 1:0.25. Cytochalasin B-treated neutrophils were added (100 μl/tube) and incubated for 2 hours at 25° C. The tubes were centrifuged (210×g, 2-8° C.) for 10 min, and supernatants were transferred to 96 well tissue culture plates (30 μl/well). […] Absorbance was measured at 405 nm (SLT 340 ATTC plate reader, SLT Lab Instruments, Austria).

IL-8 [4] = biological target: T2, IL-8 (Homo sapiens, UniProt P10145); assay: competitive binding ELISA (epitope comparison of biotinylated and unlabeled mAbs); design: is intended to mean (ser-IL-8)72 unless otherwise specified; ubiquitin (production fusion); made in house; conditions: biotinylated mAb to unlabeled mAb 1:100
Procedure: To assess whether these monoclonal antibodies bound to the same epitopes, a competitive binding ELISA was performed. […] Thus, mAb 4.1.3 and mAb 5.2.3 bind to a different epitope(s) than the epitope recognized by monoclonal antibodies 12.3.9, 4.8 and 5.12.14.

IL-8 [5] = biological target: T2, IL-8; assay: radioimmune precipitation test (RIP), capture of soluble 125I-IL-8; type: binding; design: is intended to mean (ser-IL-8)72 unless otherwise specified; ubiquitin (production fusion); made in house
Procedure: One hundred microliters of a predetermined concentration of goat anti-mouse Ig antisera (Pel-Freez, Rogers, Ark.) were added and the mixture was incubated at room temperature for 1 hr. Immune complexes were precipitated by the addition of 0.5 ml of 6% polyethylene glycol (M.W. 8000) kept at 4° C. After centrifugation at 2,000×g for 20 min at 4° C., the supernatant was removed by aspiration and the radioactivity remaining in the pellet was counted in a gamma counter. Percent specific binding was calculated as (precipitated cpm-background cpm)/(total cpm-background cpm).

[6] = tested on: IL-8 induced human neutrophil chemotaxis; assay: neutrophil chemotaxis induced by IL-8, Boyden chamber method; type: cell-based; conditions: 1:10 ratio of IL-8 to mAb
Procedure: The ability of the anti-IL-8 antibodies to block neutrophil chemotaxis induced by IL-8 was tested as follows. Neutrophil chemotaxis induced by IL-8 was determined using a Boyden chamber method (Larsen, et al. Science 243:1464 (1989)). One hundred μl of human neutrophils (10^6 cells/ml) resuspended in RPMI containing 0.1% BSA were placed in the upper chamber and 29 μl of the IL-8 (20 nM) with or without monoclonal antibodies were placed in the lower chamber. Cells were incubated for 1 hr at 37° C. Neutrophils migrated into the lower chamber were stained with Wright's Giemsa stain and counted under the microscope (100×magnification). Approximately 10 different fields per experimental group were examined. Neutralizing monoclonal antibodies 5.12.14 and 4.1.3 blocked almost 70% of the neutrophil chemotactic activity of IL-8 at 1:10 ratio of IL-8 to mAb.

human monomeric IL-8 = human monomeric IL-8 mediated neutrophil chemotaxis; type: cell-based
Procedure: Human neutrophils were isolated, counted and resuspended at 5×10^6 cells/ml in Hank's balanced salt solution (abbreviated HBSS; without calcium and magnesium) with 0.1% bovine serum albumin. The neutrophils were labeled by adding calcein AM (Molecular Probe, Eugene, Oreg.) at a final concentration of 2.0 μM. Following a 30 minute incubation at 37° C., cells were washed twice with HBSS-BSA and resuspended at 5×10^6 cells/ml.
Chemotaxis experiments were carried out in a Neuro Probe (Cabin John, Md.) 96-well chamber, model MBB96. Experimental samples (buffer only control, IL-8 alone or IL-8+Fabs) were loaded in a Polyfiltronics 96-well View plate (Neuro Probe Inc.) placed in the lower chamber. […]
The relative number of neutrophils migrating through the filter (Neutrophil migration index) was determined by measuring fluorescence intensity of the filter and the fluorescence intensity of the contents of the lower chamber and adding the two values together. Fluorescence intensity was measured with a CytoFluor 2300 fluorescent plate reader (Millipore Corp. Bedford, Mass.) configured to read a Corning 96-well plate using the 485-20 nm excitation filter and a 530-25 emission filter, with the sensitivity set at 3.

IL-8 [7] = biological target: T2, IL-8; assay: KinEXA equilibrium and kinetic measurements; type: binding; conditions: read-out: equilibrium constant (Kd)
Procedure: The beads were resuspended in assay buffer (0.1% bovine serum albumin in PBS) to a final volume of 30 ml.
The equilibrium constant (Kd) was calculated using the software provided by Sapidyne Instruments Inc.

B1: 5.12.14: murine anti-human IL-8 monoclonal antibody, IgG2a, hybridoma ATCC HB 11553 (antibody, V domains shown)
VL: KASQNVGTNVAWYQQKPGQSPKALIYSSSYRYSGVPDRFTGSGSGTDFTLTISHVQSEDLADYFCQQYNIYPLTFGPGTKLELKRADAAPPTVSIFPPFE
VH: ASGFIFSSYGMSWVRQTPGKSLELVATINNNGDSTYYPDSVKGRFTISRDNAKNTLYLQMSSLKSEDTAMFYCARALISSATWFGYWGQGTLVTVSAAKTTAPSVYP
Question: With B1 as the molecule, how does the pI [1] read?
Answer: 6.2-7.4

Question: What about the “inhibition of binding of IL-8 to human neutrophils” value [2] of the same molecule?
Answer: greater than 85%

Question: What about the “block of IL-8 mediated release of elastase from neutrophils” value [3] of the same molecule?
Answer: able to effectively block the release of elastase from neutrophils

Question: And the “inhibition of binding of biotinylated mAb (epitope)” value (IL-8 [4])?
Answer: significantly inhibited by its homologous mAb but not by mAb 4.1.3

Question: What about the “% Specific Binding to IL-8” value (IL-8 [5]; 125I-IL-8, RIP) of the same molecule?
Answer: 98%

Question: What about the “ability to capture soluble 125I-IL-8” value (IL-8 [5]; RIP) of the same molecule?
Answer: captured ^125 I-IL-8 very efficiently

Question: And the “block of neutrophil chemotactic activity of IL-8” value [6]?
Answer: ~70%

B2: F(ab)-9: humanized variant, F(ab)-6 with GluH6Gln (protein)
light: DIQMTQSPSSLSASVGDRVTITCRSSQSLVHGIGNTYLHWYQQKPGKAPKLLIYKVSNRFSGVPSRFSGSGSGTDFTLTISSLQPEDFATYYCSQSTHVPLTFGQGTKVEIKRTVAAPSVFIFPPSDEQLKSGTASVVCLLNNFYPREAKVQWKVDNALQSGNSQESVTEQDSKDSTYSLSSTLTLSKADYEKHKVYACEVTHQGLSSPVTKSFNRGEC
heavy: EVQLVQSGGGLVQPGGSLRLSCAASGYSFSSHYMHWVRQAPGKGLEWVGYIDPSNGETTYNQKFKGRFTLSRDNSKNTAYLQMNSLRAEDTAVYYCARGDYRYNGDWFFDVWGQGTLVTVSSASTKGPSVFPLAPSSKSTSGGTAALGCLVKDYFPEPVTVSWNSGALTSGVHTFPAVLQSSGLYSLSSVVTVPSSSLGTQTYICNVNHKPSNTKVDKKVEPKSCDKTHT
Question: With B2 as the molecule, how does the IC50 (human monomeric IL-8) read?
Answer: ~15 nM

B3: 6G4V11N35E IgG1: full length IgG1 version of humanized anti-IL8 variant 6G4V11N35E (protein)
light: B2 light with N35E
heavy: B2 heavy
Question: Which Kd (IL-8 [7]) does the source give for B3 here?
Answer: ~0.049 nM
